From patent US10864269B2, “Therapeutic combinations comprising anti-CD73 antibodies and uses thereof” (MedImmune Limited, priority 2014, dated 2020)

Legend:
[1] = biological target: T1, native CD73, MDA-MB-231 cells (Homo sapiens, UniProt P21589); assay: Flow cytometry binding to native CD73, MDA-MB-231 cells
T1 construct: native CD73 expressed on human, murine, and cynomolgus monkey cell lines; endogenous in cells; host or cells: MDA-MB-231
T1 sequence (P21589 27-549): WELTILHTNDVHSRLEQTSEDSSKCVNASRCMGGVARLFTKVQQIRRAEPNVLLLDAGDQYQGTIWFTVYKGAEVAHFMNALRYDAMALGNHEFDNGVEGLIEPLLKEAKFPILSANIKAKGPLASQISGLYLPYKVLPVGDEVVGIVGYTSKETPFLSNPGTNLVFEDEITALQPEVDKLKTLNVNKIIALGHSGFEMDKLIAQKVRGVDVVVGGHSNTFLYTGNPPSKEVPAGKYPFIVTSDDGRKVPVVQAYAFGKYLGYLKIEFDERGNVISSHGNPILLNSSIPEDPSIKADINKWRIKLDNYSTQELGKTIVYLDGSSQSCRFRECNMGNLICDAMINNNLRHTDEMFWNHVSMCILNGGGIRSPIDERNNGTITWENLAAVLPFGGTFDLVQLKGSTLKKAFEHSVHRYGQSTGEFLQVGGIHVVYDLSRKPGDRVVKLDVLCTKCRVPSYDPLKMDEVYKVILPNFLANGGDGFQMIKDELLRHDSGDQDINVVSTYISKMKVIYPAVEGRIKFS
Experimental: (§1) Binding of MEDI9447 to native CD73 expressed on human, murine, and cynomolgus monkey cell lines was characterized by flow cytometry. The cells were incubated with various concentrations of MEDI9447 and antibody binding was monitored with and fluorophore-labeled anti-human Fc antibody. A plot of the median fluorescence intensity as a function of the MEDI9447 concentration was fitted nonlinearly using a one-site binding isotherm model to calculate the equilibrium dissociation constant.
(§2) The affinity of enhanced anti-CD73 antibodies (in IgG1-TM format) to human, murine, and cynomolgus CD73 was determined by flow cytometry and surface plasmon resonsance (SPR) (Table 13). The enhanced antibodies had pM affinity to cellular and recombinant CD73 from the three species.
(§3) All flow cytometry experiments were run at 4C and reagents were prepared in PBS/1% FBS buffer. 10,000 cells were incubated with test antibody in 50 uL volume for 4 hours. Cells were washed twice and incubated in 50 uL goat anti-human IgGFc-AlexaFluor647 conjugate for 15 minutes. Cells were washed, resuspended in buffer supplemented with Dapi, and analyzed on a flow cytometer. […] For the determination of KD values, a plot of the median fluorescence intensity as a function of test antibody concentration was fitted nonlinearly using a one site binding isotherm model.

[2] = test system: native CD73, MK-1 cells; assay: Flow cytometry binding to native CD73, MK-1 cells; details: as measured by flow cytometry; read-out: KD, CD73 on the surface of cynomolgus MK-1 cells
Experimental: as §1, §2, §3

[3] = biological target: T2, CD73 on the cell surface of MDA-MB-231 cells (Homo sapiens, UniProt P21589); assay: Antibody-mediated internalization or shedding of CD73 by flow cytometry; type: cell-based; details: for Percentage of CD73 remaining on the cell surface: 100 nM antibody, 37° C.
T2 construct: native CD73 expressed on human, murine, and cynomolgus monkey cell lines; endogenous in cells; host or cells: MDA-MB-231
T2 sequence (P21589 27-549): T1 sequence (P21589 27-549)
Experimental: Antibody-mediated internalization or shedding of CD73 was assessed by flow cytometry. MDA-MB-231 cells were incubated in presence of 100 nM MEDI9447 or negative control antibody R347 in growth medium at 37° C. for 0-4 hours. Cells were washed and resuspended in ice-cold PBS. The presence of CD73 on the cell surface was detected by adding 10 nM DyLight488-labeled detection antibody. Cells were incubated for 15 minutes, washed and analyzed by flow cytometry. The detection antibody binds to an epitope of CD73 that is different from the MEDI9447 epitope and both antibodies simultaneously bind to CD73 without interference.

[4] = biological target: T3, huCD73 (Homo sapiens, UniProt P21589); assay: Solution binding, human CD73; details: as measured by solution binding
T3 sequence (P21589 27-549): T1 sequence (P21589 27-549)

[5] = biological target: T4, murine CD73 (Mus musculus, UniProt Q61503); assay: Solution binding, murine CD73; details: as measured by solution binding
T4 sequence (Q61503 29-551): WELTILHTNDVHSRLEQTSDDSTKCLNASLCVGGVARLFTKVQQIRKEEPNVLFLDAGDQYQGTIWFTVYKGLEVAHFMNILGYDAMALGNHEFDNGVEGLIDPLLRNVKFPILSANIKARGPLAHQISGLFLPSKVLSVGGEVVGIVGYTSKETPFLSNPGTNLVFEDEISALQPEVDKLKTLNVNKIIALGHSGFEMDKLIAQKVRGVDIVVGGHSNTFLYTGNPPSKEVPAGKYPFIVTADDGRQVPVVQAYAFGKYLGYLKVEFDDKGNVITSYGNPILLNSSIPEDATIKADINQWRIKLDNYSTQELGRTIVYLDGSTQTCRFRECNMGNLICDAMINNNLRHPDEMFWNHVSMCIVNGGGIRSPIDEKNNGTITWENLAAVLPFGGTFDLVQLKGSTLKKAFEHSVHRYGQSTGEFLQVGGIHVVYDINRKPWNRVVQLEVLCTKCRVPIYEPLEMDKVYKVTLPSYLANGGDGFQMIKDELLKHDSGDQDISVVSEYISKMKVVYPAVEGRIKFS

[6] = biological target: cynomolgus CD73; assay: Solution binding, cynomolgus CD73; details: as measured by solution binding

Substance: MEDI9447: IgG1 with CD730010-derived VL of SEQ ID NO: 68 and VH of SEQ ID NO: 82
- Kd ([1]; as measured by flow cytometry, read-out: KD, CD73 on the surface of MB-MDA-231 cells): ~0.15 nM
- KD values by flow cytometry, fold greater than those determined by SPR ([1]; human, murine and cynomolgus CD73): 13—126 fold
- Kd [2]: ~0.08 nM
- Percentage of CD73 remaining on the cell surface ([3]; 0 h): 100%
- Percentage of CD73 remaining on the cell surface ([3]; 0.25 h): 90%
- Percentage of CD73 remaining on the cell surface ([3]; 0.5 h): 90%
- Percentage of CD73 remaining on the cell surface ([3]; 1 h): 87%
- Percentage of CD73 remaining on the cell surface ([3]; 2 h): 80%
- Percentage of CD73 remaining on the cell surface ([3]; 4 h): 73%
- CD73 either internalized or shed upon antibody binding ([3]; 4 hours incubation): 27%
- Kd [4]: ~0.08 nM
- Kd [5]: ~0.13 nM
- Kd [6]: ~0.09 nM
